Series [1] has as its target T1, APAGLIVPYN (SEQ ID NO: 5).
T1 chain: APAGLIVPYN

In another series the target is T2, RSKYLATA (SEQ ID NO: 8).
T2 chain: RSKYLATA

In another series the target is T3, PANLVAPDP (SEQ ID NO: 6).
T3 chain: PANLVAPDP

The target in series [2] is T4, IVGRPRHQGV (SEQ ID NO: 7).
T4 chain: IVGRPRHQGV

The target of a further series is T5, TQKPLGLS (SEQ ID NO: 4).
T5 chain: TQKPLGLS

For another series, the target named is T6, RPLALWRS (SEQ ID NO: 3).
T6 chain: RPLALWRS

The target of a further series is T7, PVSLRSGS (SEQ ID NO: 1).
T7 chain: PVSLRSGS

B1: MMP-1 (protein)
chain: FVLTEGNPRWEQTHLTYRIENYTPDLPRADVDHAIEKAFQLWSNVTPLTFTKVSEGQADIMISFVRGDHRDNSPFDGPGGNLAHAFQPGPGIGGDAHFDEDERWTNNFREYNLHRVAAHELGHSLGLSHSTDIGALMYPSYTFSGDVQLAQDDIDGIQAIYGRSQNPVQPIGPQTPKACDSKLTFDAITTIRGEVMFFKDRFYMRTNPFYPEVELNFISVFWPQLPNGLEAAYEFADRDEVRFFKGNKYWAVQGQNVLHGYPKDIYSSFGFPRTVKHIDAALSEENTGKTYFFVANKYWRYDEYKRSMDPGYPKMIAHDFPGIGHKVDAVFMKDGFFYFFHGTRQYKFDPKTKRILTLQKANSWFNCRKN
On to B1, for which the initial rate of cleavage by recombinant protease in series [1] was determined as 0 µM/h; with RSKYLATA (SEQ ID NO: 8), 0 µM/h; in the series with PANLVAPDP (SEQ ID NO: 6), 2.7 µM/h; in series [2], 0 µM/h; with TQKPLGLS (SEQ ID NO: 4) it was 0 µM/h; in the series with RPLALWRS (SEQ ID NO: 3) it was 0.1 µM/h. Besides, in the series with PVSLRSGS (SEQ ID NO: 1), the initial rate of cleavage by recombinant protease was found to be 0 µM/h.

B2: MMP-2 (protein)
chain: YNFFPRKPKWDKNQITYRIIGYTPDLDPETVDDAFARAFQVWSDVTPLRFSRIHDGEADIMINFGRWEHGDGYPFDGKDGLLAHAFAPGTGVGGDSHFDDDELWTLGEGQVVRVKYGNADGEYCKFPFLFNGKEYNSCTDTGRSDGFLWCSTTYNFEKDGKYGFCPHEALFTMGGNAEGQPCKFPFRFQGTSYDSCTTEGRTDGYRWCGTTEDYDRDKKYGFCPETAMSTVGGNSEGAPCVFPFTFLGNKYESCTSAGRSDGKMWCATTANYDDDRKWGFCPDQGYSLFLVAAHEFGHAMGLEHSQDPGALMAPIYTYTKNFRLSQDDIKGIQELYGASPDIDLGTGPTPTLGPVTPEICKQDIVFDGIAQIRGEIFFFKDRFIWRTVTPRDKPMGPLLVATFWPELPEKIDAVYEAPQEEKAVFFAGNEYWIYSASTLERGYPKPLTSLGLPPDVQRVDAAFNWSKNKKTYIFAGDKFWRYNEVKKKMDPGFPKLIADAWNAIPDNLDAVVDLQGGGHSYFFKGAYYLKLENQSLKSVKFGSIKSDWLGC
As for B2, the initial rate of cleavage by recombinant protease in series [1] worked out at 29.6 µM/h; with RSKYLATA (SEQ ID NO: 8), 0 µM/h; with PANLVAPDP (SEQ ID NO: 6), 31.2 µM/h; in series [2], 0 µM/h; in the series with TQKPLGLS (SEQ ID NO: 4), 11.8 µM/h; with RPLALWRS (SEQ ID NO: 3), 1.1 µM/h. The initial rate of cleavage by recombinant protease with PVSLRSGS (SEQ ID NO: 1) was 1.9 µM/h.

B3: MMP-7 (protein)
chain: YSLFPNSPKWTSKVVTYRIVSYTRDLPHITVDRLVSKALNMWGKEIPLHFRKVVWGTADIMIGFARGAHGDSYPFDGPGNTLAHAFAPGTGLGGDAHFDEDERWTDGSSLGINFLYAATHELGHSLGMGHSSDPNAVMYPTYGNGDPQNFKLSQDDIKGIQKLYGKRSNSRKK
Take B3: the initial rate of cleavage by recombinant protease in series [1] is 2.4 µM/h; with RSKYLATA (SEQ ID NO: 8), 0 µM/h; with PANLVAPDP (SEQ ID NO: 6), 2.5 µM/h; in series [2], 0 µM/h; with TQKPLGLS (SEQ ID NO: 4), 1.8 µM/h; with RPLALWRS (SEQ ID NO: 3), 0.2 µM/h. Besides, the initial rate of cleavage by recombinant protease in the series with PVSLRSGS (SEQ ID NO: 1) was 0.2 µM/h.

(Values after US20230144608.)
